Tests used:
[1] = target: T1, HER2 (Erb-B2 Receptor Tyrosine Kinase 2) (human, UniProt P04626 23-1255); assay: co-immunoprecipitation with anti-HER2 antibody from T47D cells expressing wtCCDC170, western blot with anti-CCDC170 antibody
T1 construct: Endogenous protein of T47D cells, in cell lysate; also called HER2/neu

[2] = target: T2, HER3 (Erb-B2 Receptor Tyrosine Kinase 3) (human, UniProt P21860 20-1342); assay: co-immunoprecipitation with anti-HER3 antibody from T47D cells expressing wtCCDC170, western blot with anti-CCDC170 antibody
T2 construct: Endogenous protein of T47D cells, in cell lysate; also called ErbB3
T2 sequence (P21860 20-1342 limits assumed): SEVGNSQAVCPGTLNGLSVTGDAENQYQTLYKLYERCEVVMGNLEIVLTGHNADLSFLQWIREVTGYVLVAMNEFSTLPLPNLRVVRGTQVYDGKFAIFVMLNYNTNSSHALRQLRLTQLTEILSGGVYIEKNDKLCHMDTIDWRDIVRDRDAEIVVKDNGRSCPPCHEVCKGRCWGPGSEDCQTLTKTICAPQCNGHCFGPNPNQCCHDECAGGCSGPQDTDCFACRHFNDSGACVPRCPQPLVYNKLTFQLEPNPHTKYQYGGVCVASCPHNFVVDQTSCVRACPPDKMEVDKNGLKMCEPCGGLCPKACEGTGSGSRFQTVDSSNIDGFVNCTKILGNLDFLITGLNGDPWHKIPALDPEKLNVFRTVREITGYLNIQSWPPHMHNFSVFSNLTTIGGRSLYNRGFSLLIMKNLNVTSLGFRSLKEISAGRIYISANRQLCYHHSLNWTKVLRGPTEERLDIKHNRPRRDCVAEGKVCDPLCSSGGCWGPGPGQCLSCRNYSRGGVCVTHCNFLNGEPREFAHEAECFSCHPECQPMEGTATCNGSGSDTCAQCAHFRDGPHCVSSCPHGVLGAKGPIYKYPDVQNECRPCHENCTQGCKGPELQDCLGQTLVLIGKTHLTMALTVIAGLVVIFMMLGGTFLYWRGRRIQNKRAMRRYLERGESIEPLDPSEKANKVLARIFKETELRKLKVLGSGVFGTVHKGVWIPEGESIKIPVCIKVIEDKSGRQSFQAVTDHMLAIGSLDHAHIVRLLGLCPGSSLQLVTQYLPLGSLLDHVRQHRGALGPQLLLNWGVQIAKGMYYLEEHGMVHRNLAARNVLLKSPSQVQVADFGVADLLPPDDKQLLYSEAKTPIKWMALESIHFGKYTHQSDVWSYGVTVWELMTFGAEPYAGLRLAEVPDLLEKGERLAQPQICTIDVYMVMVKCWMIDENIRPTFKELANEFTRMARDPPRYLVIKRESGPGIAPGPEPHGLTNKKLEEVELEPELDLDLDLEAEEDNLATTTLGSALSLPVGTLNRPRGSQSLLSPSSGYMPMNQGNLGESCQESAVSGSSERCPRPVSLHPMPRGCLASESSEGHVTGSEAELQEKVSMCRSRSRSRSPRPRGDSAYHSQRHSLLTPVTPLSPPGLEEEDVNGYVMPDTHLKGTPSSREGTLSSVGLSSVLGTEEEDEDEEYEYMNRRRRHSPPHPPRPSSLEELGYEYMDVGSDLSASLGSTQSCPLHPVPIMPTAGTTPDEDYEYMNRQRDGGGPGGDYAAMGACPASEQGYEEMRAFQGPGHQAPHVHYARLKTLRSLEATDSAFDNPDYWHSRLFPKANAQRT

[3] = target: T3, SRC (SRC Proto-Oncogene, Non-Receptor Tyrosine Kinase) (human, UniProt P12931 2-536); assay: co-immunoprecipitation with anti-SRC antibody from T47D cells expressing wtCCDC170, western blot with anti-CCDC170 antibody
T3 construct: Endogenous protein of T47D cells, in cell lysate

binding result [1]: no binding
binding result [2]: no binding
binding result [3]: no binding
B1: wild type CCDC170 (Coiled-Coil Domain Containing 170) (other)
chain: MSLDCTSHIALGAASPAPEETYDHLSEVPVTREQLNHYRNVAQNARSELAATLVKFECAQSELQDLRSKMLSKEVSCQELKAEMESYKENNARKSSLLTSLRDRVQELEEESAALSTSKIRTEITAHAAIKENQELKKKVVELNEKLQKCSKENEENKKQVSKNCRKHEEFLTQLRDCLDPDERNDKASDEDLILKLRDLRKENEFVKGQIVILEETINVHEMEAKASRETIMRLASEVNREQKKAASCTEEKEKLNQDLLSAVEAKEALEREVKIFQERLLAGQQVWDASKQEVSLLKKSSSELEKSLKASQDAVTTSQSQYFSFREKIAALLRGRLSMTGSTEDTILEKIREMDSREESRDRMVSQLEAQISELVEQLGKESGFHQKALQRAQKAENMLETLQGQLTHLEAELVSGGVLRDNLNFEKQKYLKFLDQLSQKMKLDQMAAELGFDMRLDVVLARTEQLVRLESNAVIENKTIAHNLQRKLKTQKERLESKELHMSLLRQKIAQLEEEKQARTALVVERDNAHLTIRNLQKKVERLQKELNTCRDLHTELKAKLADTNELKIKTLEQTKAIEDLNKSRDQLEKMKEKAEKKLMSVKSELDTTEHEAKENKERARNMIEVVTSEMKTLKKSLEEAEKREKQLADFREVVSQMLGLNVTSLALPDYEIIKCLERLVHSHQHHFVTCACLKDVTTGQERHPQGHLQLLH
notes: Ectopically expressed in T47D cells and assayed in cell lysate; also called wtCCDC170; WT
